From US11156615B2 (priority 2015, dated 2021)

How the values were obtained:
[1] = Galactose binding: isothermal fluorescence titrations of conjugates; conditions: for S, selectivity = trueKd(galactose)/trueKd(glucose): S > 1, selective for glucose; for Kd: read-out: Galactose trueKd, monochromatic titration curves, room temperature
[2] = Glucose binding: isothermal fluorescence titrations, ratiometric (appKd) and monochromatic (trueKd) fits; conditions: room temperature
Text: 2 For a single glucose-binding site, the fractional saturation is given by
[formula] where ^apoIλ2 and ^satIλ2 are the emission intensities of the monochromatic signal at wavelength λ2 of the ligand-free and ligand-bound protein, respectively.

[3] = Thermostability: mid-point thermal denaturation temperature (Tm) from temperature-dependent fluorescence (Roche LightCycler); type: physicochemical; conditions: apo-protein
Procedure, shortened: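 Unfolding tracked by SYPRO binding to denatured protein, fluorescence at 488 nm/510 nm recorded on a LightCycler as temperature rose in 1 K steps. Tm taken as denaturation mid-point, for protein in solution or immobilized on Ni-NTA or NHS-agarose beads.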

[4] = Glucose-dependent fluorescence emission intensity spectra of conjugates (Nanodrop3300); type: biochemical; conditions: Nanodrop3300
Text: Semi-synthetic FRSs were engineered by site-specifically attaching thiol-reactive, environmentally sensitive fluorophores that respond to ligand-mediated conformational changes. Identification of FRS candidates that are useful for sensing applications comprises three steps: • 1. Cysteine scan. Mutant glucose-binding proteins containing single cysteines are constructed for site-specific attachment of thiol-reactive fluorophores. […] Candidate positions fall into three classes: endosteric, replacing a residue that contacts the ligand directly; peristeric, located at the rim of the binding site; allosteric (Marvin et al. 1997 Proc Natl Acad Sci USA, 94, 4366-71; Marvin 1998 J Am Chem Soc, 120, 7-11), located outside the binding site at sites that undergo local structural changes in concert with the hinge-bending motion. • 2. Fluorophore screening. Thiol-reactive, environmentally sensitive fluorophores are attached to each cysteine mutant prepared in step 1. • 3. Evaluation of the glucose-mediated change of all the fluorescent conjugates prepared in step 2. Responses to ligand binding in which there is both a change in fluorescence emission intensity and spectral shape was essential for chemometric applications, because such changes enable ratiometric measurements. Changes in spectral shape typically are accompanied by a shift in the wavelength of the emission intensity maxima. Three classes of fluorescent responses are possible: • i. No response. • ii. Monochromatic response (emission intensity increases or decreases without a change in spectral shape) • iii.

[5] = read-out: Glucose appKd, Acrylodan conjugate, dichromatic ratiometry
[6] = read-out: Glucose appKd, Badan conjugate, dichromatic ratiometry
[7] = read-out: Glucose trueKd, Acrylodan conjugate, monochromatic titration curves
[8] = read-out: Glucose trueKd, Badan conjugate, monochromatic titration curves
[9] = Acrylodan conjugate of ttGGBP.17C mutant
[10] = Badan conjugate of ttGGBP.17C mutant

B1: ttGGBP17C.2: affinity-tuning mutant, 17C background, SEQ ID NO: 67 (protein)
chain: MKQLNIGVAIYKFDDTCMTGVRNAMTAEAQGKAKLNMVDSQNSQPTQNDQVDLFITKKMNALAINPVDPTAAGTIIDKAKQANIPVVFFNREPLPEDMKKWDKVYYVGAKAEQSGILQGQIMADYWKAHPEADKNHDGVMQYVMLMGQPGHPDAILRTQYSIQTVKDAGIKVQELAKDYANWDRVTAHDKMAAWLSSFGDKIEAVFANNDDMALGAIEALKSAGYFTGNKYIPVVGVDATAPGIQAIKDGTLLGTVLNDAKNQAKATFNIAYELAQGITPTKDNIGYDITDGKYVWIPYKKITKDNISDAEQGGSHHHHHH
modifications: ttGGBP17C.2 (affinity-tuning mutant, 17C background (Table 6) with signal peptide replaced with M and GGSHHHHHH at C-terminus)
S, selectivity = trueKd(galactose)/trueKd(glucose) ([1]; Acrylodan conjugate): 0.28
S, selectivity = trueKd(galactose)/trueKd(glucose) ([1]; Badan conjugate): 0.48
Kd ([1]; Acrylodan conjugate): 5 mM
Kd ([1]; Badan conjugate): 5.2 mM
Kd [2, 5]: 15 mM
Kd [2, 6]: 8.6 mM
Kd [2, 7]: 18 mM
Kd [2, 8]: 10.8 mM
apoTm ([3]; Badan conjugate): 350 K
Type of fluorescence response to glucose [4, 9]: d (d, intensity decrease only)
Type of fluorescence response to glucose [4, 10]: r(h) (r(h), ratiometric (hypsochromic shift))

B2: ttGGBP17C.4: affinity-tuning mutant, 17C background, SEQ ID NO: 69 (protein)
chain: MKQLNIGVAIYKFDDTCMTGVRNAMTAEAQGKAKLNMVDSQNSQPTQNDQVDLFITKKMNALAINPVDRTAAGTIIDKAKQANIPVVFFNREPLPEDMKKWDKVYYVGAKAEQSGILQGQIMADYWKAHPEADKNHDGVMQYVMLMGQPGQQDAILRTQYSIQTVKDAGIKVQELAKDYANWDRVTAHDKMAAWLSSFGDKIEAVFANNDDMALGAIEALKSAGYFTGNKYIPVVGVDATAPGIQAIKDGTLLGTVLNDAKNQAKATFNIAYELAQGITPTKDNIGYDITDGKYVWIPYKKITKDNISDAEQGGSHHHHHH
modifications: ttGGBP17C.4 (affinity-tuning mutant, 17C background (Table 6) with signal peptide replaced with M and GGSHHHHHH at C-terminus)
S, selectivity = trueKd(galactose)/trueKd(glucose) ([1]; Acrylodan conjugate): 0.29
S, selectivity = trueKd(galactose)/trueKd(glucose) ([1]; Badan conjugate): 2.2
Kd ([1]; Acrylodan conjugate): 14 mM
Kd ([1]; Badan conjugate): 14 mM
Kd [2, 5]: 50 mM
Kd [2, 6]: 16 mM
Kd [2, 7]: 48 mM
Kd [2, 8]: 6.4 mM
apoTm ([3]; Badan conjugate): 347 K
Type of fluorescence response to glucose [4, 9]: r(h) (r(h), ratiometric (hypsochromic shift))
Type of fluorescence response to glucose [4, 10]: r(h) (r(h), ratiometric (hypsochromic shift))

B3: ttGGBP17C.24: affinity-tuning mutant, 17C background, SEQ ID NO: 82 (protein)
chain: MKQLNIGVAIYKFDDTCMTGVRNAMTAEAQGKAKLNMVDSQNSQPTQNDQVDLFITKKMNALAINPVDRTAAGTIIDKAKQANIPVVFFNREPLPEDMKKWDKVYYVGAKAEQSGILQGQIMADYWKAHPEADKNHDGVMQYVMLMGQPGHQDAILRTQYSIQTVKDAGIKVQELAKDYANWDRVTAHDKMAAWLSSFGDKIEAVFANNDDMALGAIEALKSAGYFTGNKYIPVVGVDATAPGIQAIKDGTLLGTVLNDRKNQAKATFNIAYELAQGITPTKDNIGYDITDGKYVWIPYKKITKDNISDAEQGGSHHHHHH
modifications: ttGGBP17C.24 (affinity-tuning mutant, 17C background (Table 6) with signal peptide replaced with M and GGSHHHHHH at C-terminus)
Kd ([1]; Badan conjugate): 29 mM
apoTm ([3]; Badan conjugate): 344 K
Type of fluorescence response to glucose [4, 10]: i (i, intensity increase only)

B4: ttGGBP17C.3: affinity-tuning mutant, 17C background, SEQ ID NO: 68 (protein)
chain: MKQLNIGVAIYKFDDNCMTGVRNAMTAEAQGKAKLNMVDSQNSQPTQNDQVDLFITKKMNALAINPVDRTAAGTIIDKAKQANIPVVFFNREPLPEDMKKWDKVYYVGAKAEQSGILQGQIMADYWKAHPEADKNHDGVMQYVMLMGQPGHQDAILRTQYSIQTVKDAGIKVQELAKDYANWDRVTAHDKMAAWLSSFGDKIEAVFANNDAMALGAIEALKSAGYFTGNKYIPVVGVDATAPGIQAIKDGTLLGTVLNDAKNQAKATFNIAYELAQGITPTKDNIGYDITDGKYVWIPYKKITKDNISDAEQGGSHHHHHH
modifications: ttGGBP17C.3 (affinity-tuning mutant, 17C background (Table 6) with signal peptide replaced with M and GGSHHHHHH at C-terminus)
Kd ([1]; Acrylodan conjugate): 0.53 mM
Kd ([1]; Badan conjugate): 2.5 mM
Kd [2, 5]: 1.4 mM
Kd [2, 6]: 3.4 mM
Kd [2, 8]: 4.1 mM
apoTm ([3]; Badan conjugate): 346 K
Type of fluorescence response to glucose [4, 9]: d (d, intensity decrease only)
Type of fluorescence response to glucose [4, 10]: r(h) (r(h), ratiometric (hypsochromic shift))

B5: ttGGBP17C.8: affinity-tuning mutant, 17C background, SEQ ID NO: 73 (protein)
chain: MKQLNIGVAIYKFDDNCMTGVRNAMTAEAQGKAKLNMVDSQNSQPTQNDQVDLFITKKMNALAINPVDRTAAGTIIDKAKQANIPVVFFNREPLPEDMKKWDKVYYVGAKAEQSGILQGQIMADYWKAHPEADKNHDGVMQYVMLMGQPGHQDAILRTQYSIQTVKDAGIKVQELAKDYANWDRVTAHDKMAAWLSSFGDKIEAVFANNDDMALGAIEALKSAGYFTGNKYIPVVGVDATAPGIQAIKDGTLLGTVLNDAKNQAKATFNIAYELAQGITPTKDNIGYDITDGKYVWIPYKKITKDNISDAEQGGSHHHHHH
modifications: ttGGBP17C.8 (affinity-tuning mutant, 17C background (Table 6) with signal peptide replaced with M and GGSHHHHHH at C-terminus)
S, selectivity = trueKd(galactose)/trueKd(glucose) ([1]; Acrylodan conjugate): 0.43
Kd ([1]; Acrylodan conjugate): 0.26 mM
Kd [2, 5]: 0.61 mM
Kd [2, 7]: 0.6 mM
apoTm ([3]; Acrylodan conjugate): 348 K
Type of fluorescence response to glucose [4, 9]: r(h) (r(h), ratiometric (hypsochromic shift))

B6: ttGGBP17C.7: affinity-tuning mutant, 17C background, SEQ ID NO: 72 (protein)
chain: MKQLNIGVAIYKFDNTCMTGVRNAMTAEAQGKAKLNMVDSQNSQPTQNDQVDLFITKKMNALAINPVDRTAAGTIIDKAKQANIPVVFFNREPLPEDMKKWDKVYYVGAKAEQSGILQGQIMADYWKAHPEADKNHDGVMQYVMLMGQPGHQDAILRTQYSIQTVKDAGIKVQELAKDYANWDRVTAHDKMAAWLSSFGDKIEAVFANNDDMALGAIEALKSAGYFTGNKYIPVVGVDATAPGIQAIKDGTLLGTVLNDAKNQAKATFNIAYELAQGITPTKDNIGYDITDGKYVWIPYKKITKDNISDAEQGGSHHHHHH
modifications: ttGGBP17C.7 (affinity-tuning mutant, 17C background (Table 6) with signal peptide replaced with M and GGSHHHHHH at C-terminus)
S, selectivity = trueKd(galactose)/trueKd(glucose) ([1]; Acrylodan conjugate): 0.91
S, selectivity = trueKd(galactose)/trueKd(glucose) ([1]; Badan conjugate): 0.64
Kd ([1]; Acrylodan conjugate): 0.3 mM
Kd ([1]; Badan conjugate): 0.64 mM
Kd [2, 5]: 0.3 mM
Kd [2, 6]: 0.75 mM
Kd [2, 7]: 0.3 mM
Kd [2, 8]: 1 mM
apoTm ([3]; Acrylodan conjugate): 348 K
apoTm ([3]; Badan conjugate): 347 K
Type of fluorescence response to glucose [4, 9]: d (d, intensity decrease only)
Type of fluorescence response to glucose [4, 10]: d (d, intensity decrease only)

B7: ttGGBP17C.6: affinity-tuning mutant, 17C background, SEQ ID NO: 71 (protein)
chain: MKQLNIGVAIYKFDETCMTGVRNAMTAEAQGKAKLNMVDSQNSQPTQNDQVDLFITKKMNALAINPVDRTAAGTIIDKAKQANIPVVFFNREPLPEDMKKWDKVYYVGAKAEQSGILQGQIMADYWKAHPEADKNHDGVMQYVMLMGQPGHQDAILRTQYSIQTVKDAGIKVQELAKDYANWDRVTAHDKMAAWLSSFGDKIEAVFANNDDMALGAIEALKSAGYFTGNKYIPVVGVDATAPGIQAIKDGTLLGTVLNDAKNQAKATFNIAYELAQGITPTKDNIGYDITDGKYVWIPYKKITKDNISDAEQGGSHHHHHH
modifications: ttGGBP17C.6 (affinity-tuning mutant, 17C background (Table 6) with signal peptide replaced with M and GGSHHHHHH at C-terminus)
S, selectivity = trueKd(galactose)/trueKd(glucose) ([1]; Badan conjugate): 1
Kd ([1]; Badan conjugate): 3.6 mM
Kd [2, 6]: 3.3 mM
Kd [2, 8]: 3.6 mM
apoTm ([3]; Badan conjugate): 346 K
Type of fluorescence response to glucose [4, 10]: r(h) (r(h), ratiometric (hypsochromic shift))
